Patent publication US20230257472A1 (JIANGSU HENGRUI MEDICINE, published 2023)

T1: human CD70 on cells (CD70-positive 786-O cells, Raji cells, CHO-S cells expressing human full-length CD70, … (human, UniProt P32970 1-193))
T1 sequence (looked up): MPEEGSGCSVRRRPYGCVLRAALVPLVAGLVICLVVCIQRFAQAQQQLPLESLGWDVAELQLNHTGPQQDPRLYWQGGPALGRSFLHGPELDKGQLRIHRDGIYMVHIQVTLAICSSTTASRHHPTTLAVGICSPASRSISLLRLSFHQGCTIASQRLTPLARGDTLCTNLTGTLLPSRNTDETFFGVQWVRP

T2: His-tagged CD70 protein extracellular domain (His-TNC-CD70) (human)
T2 construct: Expressed in 293 cells; also called human His-TNC-CD70 antigen; human CD70 antigen
T2 chain: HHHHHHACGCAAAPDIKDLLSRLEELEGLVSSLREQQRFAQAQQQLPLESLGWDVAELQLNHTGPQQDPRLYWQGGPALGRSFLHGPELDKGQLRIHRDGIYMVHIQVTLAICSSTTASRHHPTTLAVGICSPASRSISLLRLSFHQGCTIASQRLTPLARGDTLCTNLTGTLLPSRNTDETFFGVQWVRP


Columns and labels:
[1] = target: T1, human CD70 on cells (CD70-positive …); experiment: cell-based or functional assay
[2] = target: T1, human CD70 on cells (CD70-positive …); experiment: flow cytometry competition on CHO-S cells expressing human full-length CD70; blocked ligand: biotin-labeled CD27-Fc, Alexa Fluor 488 streptavidin detection
Experimental: The cell-blocking activity of the anti-CD70 antibodies was assayed by flow cytometry. CHO-S cells expressing human full-length CD70 (Invitrogen, R80007) at 1×10⁶ cells/mL were blocked with 1% BSA PBS buffer, followed by the addition with diluted anti-CD70 antibody samples at different concentrations and biotin-labeled CD27-Fc (set forth in SEQ ID NO: 84), and the mixture was incubated for 1 h. After the plate was washed twice, Alexa Fluor 488-streptavidin (Invitrogen, CAT #S11223) was added, and the mixture was incubated for 1 h. After the plate was washed twice, fluorescence signals were read using a flow cytometer.

[3] = target: T1, human CD70 on cells (CD70-positive …); experiment: flow cytometry on CD70-positive 786-O cells, Alexa Fluor 488 goat anti-human (H+L) detection
Experimental: (§1) 786-O cells (ATCC, CRL-1932) or Raji cells (ATCC, CCL-86) at 1×10⁶ cells/mL were blocked with 1% BSA PBS buffer, followed by the addition of diluted anti-CD70 antibody samples at different concentrations were added, and the mixture was incubated for 1 h. After the plate was washed twice, Alexa Fluor 488-goat anti-human (H+L) antibody (Invitrogen, CAT #A 11013) was added, and the mixture was incubated for 1 h. After the plate was washed twice, fluorescence signals were read using a flow cytometer.

[4] = target: T1, human CD70 on cells (CD70-positive …); experiment: flow cytometry on CD70-positive Raji cells, Alexa Fluor 488 goat anti-human (H+L) detection
Experimental: as §1

[5] = target: T3, fusion protein of the murine CD70 protein extracellular domain and Human-IgG1-Fc (mouse CD70-Fc) (mouse); experiment: ELISA, plate coated with 1 µg/mL mouse CD70-Fc, HRP goat anti-human F(ab')2 detection
T3 construct: also called mouse CD70 antigen
Experimental: (§2) The binding ability of the anti-CD70 antibodies was determined by the amount of the antibodies bound to the CD70 antigen protein immobilized on the ELISA plate. 1 μg/mL human CD70-Fc (set forth in SEQ ID NO: 2), monkey CD70-Fc (set forth in SEQ ID NO: 82) and mouse CD70-Fc (set forth in SEQ ID NO: 83) were coated, incubated and blocked. […] OD450 values were measured on a microplate reader.

[6] = target: fusion protein of the CD70 protein extracellular domain and Human-IgG1-Fc (human CD70-Fc) (human); experiment: ELISA, plate coated with 1 µg/mL human CD70-Fc, HRP goat anti-human F(ab')2 detection
Experimental: as §2

[7] = target: T4, fusion protein of the monkey CD70 protein extracellular domain and Human-IgG1-Fc (monkey CD70-Fc) (monkey); experiment: ELISA, plate coated with 1 µg/mL monkey CD70-Fc, HRP goat anti-human F(ab')2 detection
T4 construct: also called monkey CD70 antigen
Experimental: as §2

[8] = target: T2, His-tagged CD70 protein extracellular …; experiment: SPR Biacore T200, antibody captured by anti-human Fc, His-TNC-CD70 in flow, 1:1 model
Experimental: The affinity of the chimeric and humanized antibodies of the present disclosure for the human CD70 antigen was tested using a Biacore instrument. The procedures are as follows:
The human Fc capture molecules were covalently coupled to a CM5 biosensor chip (CAT #BR-1005-30, GE) according to the method described in the instructions of the human Fc capture kit (CAT #BR-1008-39, GE) for affinity capture of the antibodies to be tested. Then, a human His-TNC-CD70 antigen (set forth in SEQ ID NO: 1) flowed through the surface of the chip, and the reaction signal was detected in real time using a Biacore T200 instrument to obtain association and dissociation curves. After the dissociation was completed for each cycle, the biochip was washed and regenerated with a regeneration solution configured in the human antibody capture kit (GE). Data were fitted using a 1:1 model.

fusion protein of the CD70 protein extracellular domain and Human-IgG1-Fc (human CD70-Fc) (human), sequence (chain, as listed by the source limits assumed): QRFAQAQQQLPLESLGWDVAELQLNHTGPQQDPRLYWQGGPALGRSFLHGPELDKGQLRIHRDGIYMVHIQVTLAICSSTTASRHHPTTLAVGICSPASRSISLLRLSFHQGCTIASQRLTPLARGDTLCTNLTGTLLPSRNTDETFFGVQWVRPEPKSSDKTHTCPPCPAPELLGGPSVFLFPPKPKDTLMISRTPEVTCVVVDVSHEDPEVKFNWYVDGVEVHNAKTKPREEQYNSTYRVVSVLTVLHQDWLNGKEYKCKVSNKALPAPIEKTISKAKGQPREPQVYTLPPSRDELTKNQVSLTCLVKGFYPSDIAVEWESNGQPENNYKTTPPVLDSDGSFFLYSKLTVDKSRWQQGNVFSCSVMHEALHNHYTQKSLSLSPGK
T3 sequence (chain, as listed by the source limits assumed): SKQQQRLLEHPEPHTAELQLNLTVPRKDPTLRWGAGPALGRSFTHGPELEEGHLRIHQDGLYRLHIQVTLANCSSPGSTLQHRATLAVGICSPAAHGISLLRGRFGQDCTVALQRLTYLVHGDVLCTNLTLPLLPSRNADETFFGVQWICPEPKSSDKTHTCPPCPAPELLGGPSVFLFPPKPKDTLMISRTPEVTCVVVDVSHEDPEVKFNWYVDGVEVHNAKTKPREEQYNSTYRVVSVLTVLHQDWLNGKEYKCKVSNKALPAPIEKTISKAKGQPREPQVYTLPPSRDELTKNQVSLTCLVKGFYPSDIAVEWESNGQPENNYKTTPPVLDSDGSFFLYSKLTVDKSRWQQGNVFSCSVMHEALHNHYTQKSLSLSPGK
T4 sequence (chain, as listed by the source limits assumed): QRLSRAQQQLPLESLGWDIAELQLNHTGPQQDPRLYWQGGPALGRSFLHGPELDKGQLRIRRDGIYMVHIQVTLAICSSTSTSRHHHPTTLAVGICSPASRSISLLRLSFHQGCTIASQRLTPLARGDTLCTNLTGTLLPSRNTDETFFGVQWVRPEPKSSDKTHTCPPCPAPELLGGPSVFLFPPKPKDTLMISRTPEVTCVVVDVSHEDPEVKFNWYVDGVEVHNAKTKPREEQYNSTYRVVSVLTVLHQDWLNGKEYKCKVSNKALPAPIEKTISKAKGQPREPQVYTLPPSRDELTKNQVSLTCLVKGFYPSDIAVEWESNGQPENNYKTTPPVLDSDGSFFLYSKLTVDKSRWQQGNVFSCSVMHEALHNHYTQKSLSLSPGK

Binder | IC50 (ng/mL), inhibition of IL-8 secretion mediated by CD70/CD27 binding (U266 cells + HT1080/CD27 cells) [1] | Imax (%), maximum inhibition rate of IL-8 secretion from CD27 cells [1] | IC50 (read off the curve) [2] | EC50 (read off the curve) [3] | EC50 (read off the curve) [4] | binding result [5] | binding result [6] | EC50 (read off the curve) [7] | Kd [8] | koff [8] | kon [8] | EC50 (read off the curve) [6] | binding result [7]
huB7002 (afuc) (antibody, human IgG1, kappa, V domains shown, non-fucosylated (heavy chain not modified by fucosylation), also called non-fucosylated antibody of huB7002) VH: EVQLVQSGSELKKPGASVKVSCKASGYTFTNYGMNWVRQAPGQGLEWMGWINTYTGEPTYADEFKGRFVFSLDTSVSTAYLQISSLKAEDTAVYYCARGDSFTTEILRNWYFDVWGQGTTVTVSS VL: DIQMTQSPSSLSASVGDRVTITCGASENIYGALNWYQQKPGKVPKLLIYGATNLADGVPSRFSGSGSGTDFTLTISSLQPEDVATYYCQNVLSTPWTFGGGTKVEIKR | 19.8 ng/mL | 91.7% | ~0.4 µg/mL |  |  |  |  |  |  |  |  |  | 
huF4011 (afuc) (antibody, human IgG1, kappa, V domains shown, non-fucosylated (heavy chain not modified by fucosylation), also called non-fucosylated antibody of huF4011) VH: EVQLVQSGAEVKKPGSSVKVSCKASGDTFPRYNMHWVRQAPGQGLEWMGAIFPGTGETSYNQNFKGRVTLTADKSTSTAYMELSSLRSEDTAVYYCARNSYYDYAWFTYWGQGTLVTVSS VL: DIVMTQSPDSLAVSLGERATINCRASKSVSSSGYSFMHWYQQKPGQPPKLLISLADNLESGVPDRFSGSGSGTDFTLTISSLQAEDVAVYYCQHSREFPPTFGQGTKLEIKR | 13 ng/mL | 92.3% | ~0.3 µg/mL | ~0.02 µg/mL | ~0.02 µg/mL |  |  |  |  |  |  |  | 
huB7002 (antibody, human IgG1, kappa, V domains shown, Humanized IgG1) VH: EVQLVQSGSELKKPGASVKVSCKASGYTFTNYGMNWVRQAPGQGLEWMGWINTYTGEPTYADEFKGRFVFSLDTSVSTAYLQISSLKAEDTAVYYCARGDSFTTEILRNWYFDVWGQGTTVTVSS VL: DIQMTQSPSSLSASVGDRVTITCGASENIYGALNWYQQKPGKVPKLLIYGATNLADGVPSRFSGSGSGTDFTLTISSLQPEDVATYYCQNVLSTPWTFGGGTKVEIKR | 21 ng/mL | 98.7% | ~0.4 µg/mL | ~0.02 µg/mL |  | no binding (tested: 10 µg/mL (log 1)) | binds | ~0.03 µg/mL | 0.0286 nM | 0.000174 s⁻¹ | 6.09e+06 M⁻¹ s⁻¹ |  | 
huF4011 (antibody, human IgG1, kappa, V domains shown, Humanized IgG1) VH: EVQLVQSGAEVKKPGSSVKVSCKASGDTFPRYNMHWVRQAPGQGLEWMGAIFPGTGETSYNQNFKGRVTLTADKSTSTAYMELSSLRSEDTAVYYCARNSYYDYAWFTYWGQGTLVTVSS VL: DIVMTQSPDSLAVSLGERATINCRASKSVSSSGYSFMHWYQQKPGQPPKLLISLADNLESGVPDRFSGSGSGTDFTLTISSLQAEDVAVYYCQHSREFPPTFGQGTKLEIKR | 14.2 ng/mL | 93.8% | ~0.4 µg/mL | ~0.03 µg/mL | ~0.02 µg/mL | no binding (tested: 10 µg/mL (log 1)) |  | ~0.05 µg/mL | 0.0465 nM | 0.000145 s⁻¹ | 3.12e+06 M⁻¹ s⁻¹ | ~0.03 µg/mL | 
huB1010 (afuc) (antibody, human IgG1, kappa, V domains shown, non-fucosylated (heavy chain not modified by fucosylation), also called non-fucosylated antibody of huB1010) VH: EVQMVQSGAEVKKPGASVKVSCKASGYTFTTYNIHWVRQAPGQGLEWMGDIYPGTGDASYNQKFRDRVTMTRDTSTSTVYMELSSLRSEDTAVYYCATFSRFDGWFAYWGQGTLVTVSS VL: DIVMTQSPDSLAVSLGERATINCRASRSVSTSGYSYMHWYQQKPGQPPKLLIYLADNLESGVPDRFSGSGSGTDFTLTISSLQAEDVAVYYCQHSRELPYTFGGGTKVEIKR |  |  | ~0.3 µg/mL | ~0.02 µg/mL | ~0.02 µg/mL |  |  |  |  |  |  |  | 
huB1010 (antibody, human IgG1, kappa, V domains shown, Humanized IgG1) VH: EVQMVQSGAEVKKPGASVKVSCKASGYTFTTYNIHWVRQAPGQGLEWMGDIYPGTGDASYNQKFRDRVTMTRDTSTSTVYMELSSLRSEDTAVYYCATFSRFDGWFAYWGQGTLVTVSS VL: DIVMTQSPDSLAVSLGERATINCRASRSVSTSGYSYMHWYQQKPGQPPKLLIYLADNLESGVPDRFSGSGSGTDFTLTISSLQAEDVAVYYCQHSRELPYTFGGGTKVEIKR |  |  | ~0.4 µg/mL | ~0.02 µg/mL | ~0.02 µg/mL | no binding (tested: 10 µg/mL (log 1)) |  |  | 0.0355 nM | 0.00013 s⁻¹ | 3.67e+06 M⁻¹ s⁻¹ | ~0.04 µg/mL | binds
